Target: T1, human L-selectin (on human leukocytes) (human, UniProt P14151 39-372)
T1 construct: whole, on cells; also called LECAM-1; Lam-1
T1 sequence (looked up): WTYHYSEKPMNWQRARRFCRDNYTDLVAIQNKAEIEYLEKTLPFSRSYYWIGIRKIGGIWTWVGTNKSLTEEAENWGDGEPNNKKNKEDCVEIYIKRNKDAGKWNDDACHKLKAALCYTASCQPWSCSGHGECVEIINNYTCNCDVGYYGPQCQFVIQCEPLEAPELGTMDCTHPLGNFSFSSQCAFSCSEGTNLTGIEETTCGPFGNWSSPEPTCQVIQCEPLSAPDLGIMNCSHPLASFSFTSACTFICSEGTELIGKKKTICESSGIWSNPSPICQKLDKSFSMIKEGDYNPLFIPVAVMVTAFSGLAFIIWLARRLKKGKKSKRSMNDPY
Test: binding to leukocytes (e.g. FACS analysis)

- binding result: binds
B1: HuDreg 55 humanized anti-L-selectin antibody (antibody, human IgG4, kappa, V domains shown)
VH: EVQLVESGGGLVQPGGSLRLSCAASGFTFSTYAMSWVRQAPGKGLEWVASISTGGSTYYPDSVKGRFTISRDNAKNTLYLQMNSLRAEDTAVYYCARDYDGYFDYWGQGTLVTVSS
VL: DIQMTQSPSSLSASVGDRVTITCKASQSVDYDGDSYMNWYQQKPGKAPKLLIYAASNLESGIPSRFSGSGSGTDFTLTISSLQPEDFATYYCQQSNEDPWTFGQGTKVEIKR

— US20020098183A1 (published 2002)
